In US20260167699A1 (Chugai, published 2026):

T1: FcγRIIa(R) (human, UniProt P12318 34-217)
T1 construct: extracellular domain; also called FcγRIIa R type; 2aR
T1 sequence: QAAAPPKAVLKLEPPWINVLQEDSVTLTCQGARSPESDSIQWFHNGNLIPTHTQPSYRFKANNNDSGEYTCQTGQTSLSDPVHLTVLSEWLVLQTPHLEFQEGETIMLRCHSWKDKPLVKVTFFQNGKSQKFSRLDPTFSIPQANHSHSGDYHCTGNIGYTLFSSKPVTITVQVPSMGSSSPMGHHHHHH

T2: FcγRIIa(H) (human, UniProt P12318 34-217)
T2 construct: extracellular domain; also called FcγRIIa H type; 2aH
T2 sequence: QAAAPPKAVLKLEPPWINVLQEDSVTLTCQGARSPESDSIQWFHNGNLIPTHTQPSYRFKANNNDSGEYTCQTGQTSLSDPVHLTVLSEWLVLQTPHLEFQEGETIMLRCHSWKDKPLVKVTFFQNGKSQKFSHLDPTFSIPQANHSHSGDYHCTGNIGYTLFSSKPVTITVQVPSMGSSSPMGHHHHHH

T3: FcγRIIb (human, UniProt P31994 43-217)
T3 construct: extracellular domain; also called 2b
T3 sequence: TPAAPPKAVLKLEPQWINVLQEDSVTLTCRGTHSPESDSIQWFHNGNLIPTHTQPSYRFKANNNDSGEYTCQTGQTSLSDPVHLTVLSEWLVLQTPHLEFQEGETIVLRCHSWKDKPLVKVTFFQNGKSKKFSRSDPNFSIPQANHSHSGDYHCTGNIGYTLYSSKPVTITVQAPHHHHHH

T4: FcγRIIa(R) extracellular domain, C-terminal His tag (human, UniProt P12318 34-217)
T4 construct: extracellular domain; also called 2aR
T4 sequence: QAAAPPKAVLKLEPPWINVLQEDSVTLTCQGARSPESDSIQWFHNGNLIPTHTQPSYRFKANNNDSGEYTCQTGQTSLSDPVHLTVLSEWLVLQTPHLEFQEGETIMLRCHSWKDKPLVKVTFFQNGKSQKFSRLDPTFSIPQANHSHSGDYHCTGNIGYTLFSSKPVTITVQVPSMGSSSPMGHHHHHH

T5: FcγRIIa(H) extracellular domain, C-terminal His tag (human, UniProt P12318 34-217)
T5 construct: extracellular domain; also called 2aH
T5 sequence: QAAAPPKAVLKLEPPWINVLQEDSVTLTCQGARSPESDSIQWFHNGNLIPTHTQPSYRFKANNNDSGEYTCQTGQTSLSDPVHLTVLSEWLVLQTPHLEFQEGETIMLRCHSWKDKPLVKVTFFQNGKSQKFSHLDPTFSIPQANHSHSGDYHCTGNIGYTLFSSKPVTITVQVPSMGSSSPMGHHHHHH

T6: FcγRIIb extracellular domain, C-terminal His tag (human, UniProt P31994 43-217)
T6 construct: extracellular domain; also called 2b
T6 sequence: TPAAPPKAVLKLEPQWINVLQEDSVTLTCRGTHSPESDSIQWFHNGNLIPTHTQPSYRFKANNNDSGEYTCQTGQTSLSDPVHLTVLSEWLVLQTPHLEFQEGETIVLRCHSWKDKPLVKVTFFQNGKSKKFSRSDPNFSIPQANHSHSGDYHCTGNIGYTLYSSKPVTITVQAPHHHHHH

B1: GpH7-A5/GpH7-B3 variant V266_08L/GpL16-k0 (antibody, human IgG1, kappa)
heavy 1: not shown
heavy 2: not shown
light: DIVMTQSPLSLPVTPGEPASISCQASESLVHSNRNTYLHWYLQKPGQSPQLLIYKVSNRFSGVPDRFSGSGSGTDFTLKISRVEAEDVGVYYCSQNTHVPPTFGQGTKVEIERTVAAPSVFIFPPSDEQLKSGTASVVCLLNNFYPREAKVQWKVDNALQSGNSQESVTEQDSKDSTYSLSSTLTLSKADYEKHKVYACEVTHQGLSSPVTKSFNRGEC
notes: heterodimerized IgG1, one H chain mutated; also called He Ab
B2: GpH7-A5/GpH7-B3 variant Q295_12R/GpL16-k0 (antibody, human IgG1, kappa)
heavy 1: not shown
heavy 2: not shown
light: DIVMTQSPLSLPVTPGEPASISCQASESLVHSNRNTYLHWYLQKPGQSPQLLIYKVSNRFSGVPDRFSGSGSGTDFTLKISRVEAEDVGVYYCSQNTHVPPTFGQGTKVEIERTVAAPSVFIFPPSDEQLKSGTASVVCLLNNFYPREAKVQWKVDNALQSGNSQESVTEQDSKDSTYSLSSTLTLSKADYEKHKVYACEVTHQGLSSPVTKSFNRGEC
notes: heterodimerized IgG1, one H chain mutated; also called He Ab; copies: 1 + 1 + 2
B3: GpH7-A5/GpH7-B3 variant P271_01G/GpL16-k0 (antibody, human IgG1, kappa)
heavy 1: not shown
heavy 2: not shown
light: DIVMTQSPLSLPVTPGEPASISCQASESLVHSNRNTYLHWYLQKPGQSPQLLIYKVSNRFSGVPDRFSGSGSGTDFTLKISRVEAEDVGVYYCSQNTHVPPTFGQGTKVEIERTVAAPSVFIFPPSDEQLKSGTASVVCLLNNFYPREAKVQWKVDNALQSGNSQESVTEQDSKDSTYSLSSTLTLSKADYEKHKVYACEVTHQGLSSPVTKSFNRGEC
notes: as for B2
B4: GpH7-A5/GpH7-B3 variant P271_02A/GpL16-k0 (antibody, human IgG1, kappa)
heavy 1: not shown
heavy 2: not shown
light: DIVMTQSPLSLPVTPGEPASISCQASESLVHSNRNTYLHWYLQKPGQSPQLLIYKVSNRFSGVPDRFSGSGSGTDFTLKISRVEAEDVGVYYCSQNTHVPPTFGQGTKVEIERTVAAPSVFIFPPSDEQLKSGTASVVCLLNNFYPREAKVQWKVDNALQSGNSQESVTEQDSKDSTYSLSSTLTLSKADYEKHKVYACEVTHQGLSSPVTKSFNRGEC
notes: as for B2
B5: GpH7-A5/GpH7-B3 variant P271_03V/GpL16-k0 (antibody, human IgG1, kappa)
heavy 1: not shown
heavy 2: not shown
light: DIVMTQSPLSLPVTPGEPASISCQASESLVHSNRNTYLHWYLQKPGQSPQLLIYKVSNRFSGVPDRFSGSGSGTDFTLKISRVEAEDVGVYYCSQNTHVPPTFGQGTKVEIERTVAAPSVFIFPPSDEQLKSGTASVVCLLNNFYPREAKVQWKVDNALQSGNSQESVTEQDSKDSTYSLSSTLTLSKADYEKHKVYACEVTHQGLSSPVTKSFNRGEC
notes: as for B2
B6: GpH7-A5/GpH7-B3 variant P271_06M/GpL16-k0 (antibody, human IgG1, kappa)
heavy 1: not shown
heavy 2: not shown
light: DIVMTQSPLSLPVTPGEPASISCQASESLVHSNRNTYLHWYLQKPGQSPQLLIYKVSNRFSGVPDRFSGSGSGTDFTLKISRVEAEDVGVYYCSQNTHVPPTFGQGTKVEIERTVAAPSVFIFPPSDEQLKSGTASVVCLLNNFYPREAKVQWKVDNALQSGNSQESVTEQDSKDSTYSLSSTLTLSKADYEKHKVYACEVTHQGLSSPVTKSFNRGEC
notes: as for B2
B7: GpH7-A5/GpH7-B3 variant P271_07I/GpL16-k0 (antibody, human IgG1, kappa)
heavy 1: not shown
heavy 2: not shown
light: DIVMTQSPLSLPVTPGEPASISCQASESLVHSNRNTYLHWYLQKPGQSPQLLIYKVSNRFSGVPDRFSGSGSGTDFTLKISRVEAEDVGVYYCSQNTHVPPTFGQGTKVEIERTVAAPSVFIFPPSDEQLKSGTASVVCLLNNFYPREAKVQWKVDNALQSGNSQESVTEQDSKDSTYSLSSTLTLSKADYEKHKVYACEVTHQGLSSPVTKSFNRGEC
notes: as for B2
B8: GpH7-A5/GpH7-B3 variant P271_08L/GpL16-k0 (antibody, human IgG1, kappa)
heavy 1: not shown
heavy 2: not shown
light: DIVMTQSPLSLPVTPGEPASISCQASESLVHSNRNTYLHWYLQKPGQSPQLLIYKVSNRFSGVPDRFSGSGSGTDFTLKISRVEAEDVGVYYCSQNTHVPPTFGQGTKVEIERTVAAPSVFIFPPSDEQLKSGTASVVCLLNNFYPREAKVQWKVDNALQSGNSQESVTEQDSKDSTYSLSSTLTLSKADYEKHKVYACEVTHQGLSSPVTKSFNRGEC
notes: as for B2
B9: GpH7-A5/GpH7-B3 variant P271_09D/GpL16-k0 (antibody, human IgG1, kappa)
heavy 1: not shown
heavy 2: not shown
light: DIVMTQSPLSLPVTPGEPASISCQASESLVHSNRNTYLHWYLQKPGQSPQLLIYKVSNRFSGVPDRFSGSGSGTDFTLKISRVEAEDVGVYYCSQNTHVPPTFGQGTKVEIERTVAAPSVFIFPPSDEQLKSGTASVVCLLNNFYPREAKVQWKVDNALQSGNSQESVTEQDSKDSTYSLSSTLTLSKADYEKHKVYACEVTHQGLSSPVTKSFNRGEC
notes: as for B2
B10: GpH7-A5/GpH7-B3 variant P271_10E/GpL16-k0 (antibody, human IgG1, kappa)
heavy 1: not shown
heavy 2: not shown
light: DIVMTQSPLSLPVTPGEPASISCQASESLVHSNRNTYLHWYLQKPGQSPQLLIYKVSNRFSGVPDRFSGSGSGTDFTLKISRVEAEDVGVYYCSQNTHVPPTFGQGTKVEIERTVAAPSVFIFPPSDEQLKSGTASVVCLLNNFYPREAKVQWKVDNALQSGNSQESVTEQDSKDSTYSLSSTLTLSKADYEKHKVYACEVTHQGLSSPVTKSFNRGEC
notes: as for B2
B11: GpH7-A5/GpH7-B3 variant P271_11K/GpL16-k0 (antibody, human IgG1, kappa)
heavy 1: not shown
heavy 2: not shown
light: DIVMTQSPLSLPVTPGEPASISCQASESLVHSNRNTYLHWYLQKPGQSPQLLIYKVSNRFSGVPDRFSGSGSGTDFTLKISRVEAEDVGVYYCSQNTHVPPTFGQGTKVEIERTVAAPSVFIFPPSDEQLKSGTASVVCLLNNFYPREAKVQWKVDNALQSGNSQESVTEQDSKDSTYSLSSTLTLSKADYEKHKVYACEVTHQGLSSPVTKSFNRGEC
notes: as for B2
B12: GpH7-A5/GpH7-B3 variant P271_12R/GpL16-k0 (antibody, human IgG1, kappa)
heavy 1: not shown
heavy 2: not shown
light: DIVMTQSPLSLPVTPGEPASISCQASESLVHSNRNTYLHWYLQKPGQSPQLLIYKVSNRFSGVPDRFSGSGSGTDFTLKISRVEAEDVGVYYCSQNTHVPPTFGQGTKVEIERTVAAPSVFIFPPSDEQLKSGTASVVCLLNNFYPREAKVQWKVDNALQSGNSQESVTEQDSKDSTYSLSSTLTLSKADYEKHKVYACEVTHQGLSSPVTKSFNRGEC
notes: as for B2
B13: GpH7-A5/GpH7-B3 variant P271_13S/GpL16-k0 (antibody, human IgG1, kappa)
heavy 1: not shown
heavy 2: not shown
light: DIVMTQSPLSLPVTPGEPASISCQASESLVHSNRNTYLHWYLQKPGQSPQLLIYKVSNRFSGVPDRFSGSGSGTDFTLKISRVEAEDVGVYYCSQNTHVPPTFGQGTKVEIERTVAAPSVFIFPPSDEQLKSGTASVVCLLNNFYPREAKVQWKVDNALQSGNSQESVTEQDSKDSTYSLSSTLTLSKADYEKHKVYACEVTHQGLSSPVTKSFNRGEC
notes: as for B2
B14: GpH7-A5/GpH7-B3 variant P271_18N/GpL16-k0 (antibody, human IgG1, kappa)
heavy 1: not shown
heavy 2: not shown
light: DIVMTQSPLSLPVTPGEPASISCQASESLVHSNRNTYLHWYLQKPGQSPQLLIYKVSNRFSGVPDRFSGSGSGTDFTLKISRVEAEDVGVYYCSQNTHVPPTFGQGTKVEIERTVAAPSVFIFPPSDEQLKSGTASVVCLLNNFYPREAKVQWKVDNALQSGNSQESVTEQDSKDSTYSLSSTLTLSKADYEKHKVYACEVTHQGLSSPVTKSFNRGEC
notes: as for B2

Key:
FcγRIa = target: T7, FcγRIa (human, UniProt P12314 16-292); assay: SPR (Biacore), binding relative to GpH7-A5/GpH7-B3/GpL16-k0 x100;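 note: surface plasmon resonance at 25 °C, antibody captured on a sensor chip and soluble FcγR flowed over it in HBS-EP+ running buffer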
T7 construct: extracellular domain; also called 1a
T7 sequence (P12314 other isoform, or with tags, fused parts or gaps): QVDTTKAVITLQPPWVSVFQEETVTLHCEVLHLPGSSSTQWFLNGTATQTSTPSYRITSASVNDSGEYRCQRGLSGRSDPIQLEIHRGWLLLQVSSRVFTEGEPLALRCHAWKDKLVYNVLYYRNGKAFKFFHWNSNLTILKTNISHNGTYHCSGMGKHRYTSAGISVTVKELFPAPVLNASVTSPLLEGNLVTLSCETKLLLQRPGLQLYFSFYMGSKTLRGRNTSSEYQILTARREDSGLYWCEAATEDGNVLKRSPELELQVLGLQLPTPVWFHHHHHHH

FcγRIIa(R) = target: T1, FcγRIIa(R); assay: as above
FcγRIIa(H) = target: T2, FcγRIIa(H); assay: as above
FcγRIIb = target: T3, FcγRIIb; assay: as above
[1] = target: T8, FcγRIa extracellular domain, C-terminal His tag (human, UniProt P12314 16-292); assay: SPR; He Ab vs HeCon Ab (GpH7-A5/GpH7-B3/GpL16-k0)=100;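 note: surface plasmon resonance at 25 °C with the test antibody captured on a sensor chip via antigenic peptide, protein L or protein A/G and FcγR flowed over as analyte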
T8 construct: extracellular domain; also called 1a
T8 sequence (P12314 other isoform, or with tags, fused parts or gaps): as above

[2] = target: T4, FcγRIIa(R) extracellular domain, …; assay: as above
[3] = target: T5, FcγRIIa(H) extracellular domain, …; assay: as above
[4] = target: T6, FcγRIIb extracellular domain, …; assay: as above
[5] = target: T9, FcγRIIIa extracellular domain, C-terminal His tag (human, UniProt P08637 17-208); assay: as above
T9 construct: extracellular domain; also called 3a
T9 sequence (P08637 other isoform, or with tags, fused parts or gaps): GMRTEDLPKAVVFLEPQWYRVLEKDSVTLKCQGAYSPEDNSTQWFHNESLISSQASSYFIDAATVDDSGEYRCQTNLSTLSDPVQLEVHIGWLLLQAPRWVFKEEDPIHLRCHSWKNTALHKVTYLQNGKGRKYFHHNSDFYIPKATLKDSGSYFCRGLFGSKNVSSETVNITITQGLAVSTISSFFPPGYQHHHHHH

Row | He/Con 1a (FcγRIa) [%] | He/Con 2aR (FcγRIIa(R)) [%] | He/Con 2aH (FcγRIIa(H)) [%] | He/Con 2b (FcγRIIb) [%] | He/Con 1a [1] [%] | He/Con 2aR [2] [%] | He/Con 2aH [3] [%] | He/Con 2b [4] [%] | He/Con 3a [5] [%] | Binder
1 | 94.9 | 152 | 106 | 248 |  |  |  |  |  | B1
2 |  |  |  |  | 98.8 | 82.2 | 96.4 | 73.1 | 73.2 | B2
3 |  |  |  |  | 103 | 143 | 123 | 217 | 119 | B3
4 |  |  |  |  | 102 | 93.9 | 88.4 | 98.7 | 83.7 | B4
5 |  |  |  |  | 101 | 85.8 | 85.4 | 83.8 | 73.5 | B5
6 |  |  |  |  | 101 | 87.3 | 87.7 | 87 | 74 | B6
7 |  |  |  |  | 101 | 88 | 94.1 | 86.1 | 80.2 | B7
8 |  |  |  |  | 101 | 103 | 99.4 | 115 | 74.5 | B8
9 |  |  |  |  | 100 | 109 | 80.4 | 135 | 97.7 | B9
10 |  |  |  |  | 101 | 102 | 72.4 | 122 | 98.2 | B10
11 |  |  |  |  | 101 | 97.3 | 100 | 101 | 92.5 | B11
12 |  |  |  |  | 101 | 95.8 | 100 | 96.9 | 87.6 | B12
13 |  |  |  |  | 101 | 93.5 | 83.3 | 98.2 | 79.8 | B13
14 |  |  |  |  | 102 | 97.7 | 94.5 | 105 | 94 | B14
